From a protein production outcome set (Wang et al. 2014)

Experiment: label from the status in PepcDB records

Sequence	protein production
MAKSGSLSIRVVEGRALPAKDVSGSSDPYCLVKVDDEVVARTATIWRSLSPFWGEEYTVHLPLDFHHLAFYVLDEDTVGHDDIIGKISLSKEAITADPRGIDSWINLSRVDPDEEVQGEVCLAVKLLEDARGRCLRCHVRQARDLAPRDISGTSDPFARVFWGSRSLETSTIKKTRFPHWDEVLELREAPGTTSPLRVELWDWDMVGKNDFLGMVEFTPQTLQQKPPNGWFRLLPFPRAEDSGGSLGALRLKVRLTEDRVLPSQYYQPLMELLLESVQGPAEEDTTSPLALLEELASGDCRQDLATKLVKLFLGRGLAGPFLDYLTRREVARTNDPNTLFRSNSLASKSMEQFMKLVGMRYLHEVLRPVISRVFEEKKYMELDPSKMDLNRSRRISFKGTPTEEQVRETSLGLLTGYLGSVVDAIVSSAGRCPLALRLAFKQLQQCVEKRFPGMEHQVGWVLRGLMRIRLKAPCVQCSRCIDXRNRIWGHRRCLPHGELGLLSPLLQAVQSIGNLGQQLGQGKEQWLAPLHPFLLQSISRVRDFLDQLVDVDGDEEAGFPLTKLMECRGVTKEGRVGXGRWSTSXFPAFRRERQERPGGLCCSERSAAWSWRLRLTGRDIAGLTGQWHAVPGRPQVHSSIPLSCIRAVERVDEGAFQLPHVMQVVTQDGTGASHTTYLQCKNVNDLNQWLSALRKASAPNPGKLAACHPGAFRSGRWTCCLQAERSAALSFHLGVLCNLEHVTXFLCASVFSSGKWSSPLDPKAGGAALYLRNQFCLSLSTLRLKLLEDSSLDTAPDVDPGKDSSAVDGPCAEVLAQQREATTRLLQVLEDLEQAHEEFQKRG	failed
AIAQGENVDHAQPISTWSAEQELHLVVFTKPPIAGLTKQRLSREIGSTLATRISAALVENTLATAYDWLQGLDLQAGGTGAVHLYYTPVESEQAKAECVERWLDDSVRHRYPAFRIAPQKASKVQSTGDQKQDPLGSRLIQAFTEVTSLVDESRDAHVVVIGSDCPALDTAVLQQAFAALHAGHGAVIGPAQDGGYYLLGLAFAAAERTRWARVIYAAFGPHLVFSQNDVCARTVEALRNDGVRTICLPVTLNDVDTAQDLVHLPASMRPREWFSSANARLHKTSDLVETAPAPGSTTCDEEVDADKLDPSVQNVCSRQV	not failed
MNGRRERAQGTEWAGDPAGCGTMERMPSALPDGEPVPADGALPASALAGAADRPLGFYLHVPYCATRCGYCDFNTYTATELRGTGGVLASRDNYADTLVDEVRLARKVLGDDPREVRTVFVGGGTPTLLAAGDLVRMLGAIRDEFGLAPDAEITTEANPESVDPAYLATLRAGGFNRISFGMQSAKQHVLKILDRTHTPGRPEACVAEARAAGFDHVNLDLIYGTPGESDDDWRASLDAALGAGPDHVSAYALIVEEGTQLARRIRRGEVPMTDDDVHADRYLIAEEALSAAGYDWYEVSNWATSDAGRCLHNELYWRGADWWGAGPGAHSHVGGVRWWNVKHPGAYAGALAAGKSPGAGREILTDEDRRVERILLELRLREGVPLSLLREAGLAASRRALSEGLLQEGPYEAGSAVLTLRGRLLADAVVRDLVD	failed
MKKCFELTPCLLAFLCITSCVEDVDNERSKGMFSASQSGFSTIEVYDLGPLNKIDLSIAKAGLEDTGGTVTFSVEQSLLDSLNNADGTSYQLLPPECYTIENATYSVSPGGDRRVTGGSLVYDPHKIYNLCGFDELKYVLPLRVSSTGTPMNSDRTATLYGFIVKEAIVRLASTGGDFVVEGGTTTSPMNLDTEISFENEWDLTTSFATKGADYVDNYNSANSTYYIPLPSDFYTLPDVTIAKGKTTGGSAISLLGETLPPGNYLLPVSLGGLSGQGDASINIDKETVANYFVIKQGGPINRDHWTVTANTEEKTGEVSAAYPHNGQTISLIDGEINTFWHSKWQGGEVAPPYEIILDMGKENSVSQLGLIARQNALTSMNLEIYAGDDGETWNLIGKYFFDGSIKTEQMVPVKACDARWIRIYIPTLGSGSSVGHLAEIYVYGTDK	failed
MNEFEDLLNSVSEVNPGDVVTAEVLTVDNGQANVVIEGTGVEGVLTLRELTNDRDADINDFVKAGDTVEVLVLRQVVGKDTDTVTFLVSKKRLEARKAWDKLVGREGEVVTVKGTRAVKGGLSVEFEGLRGFIPASMIDTRFVRNTEKFVGQEFDAKIKEVDAAENRFILSRREVIEEAAKEARAEVFSKISEGAVVTGTVARLTSFGAFIDLGGVDGLVHVTELSHERNVSPKSVVSVGEEVEVKVLSIDEEAGRVSLSLKATTPGPWDGVEQKLAQGDVVEGKVKRLTDFGAFVEVLPGIDGLVHISQISHKRVENPKDVLSVGQEVTVKVLEVNAADERVSLSIKALEERPAQAEGDNKEEKRQSRPRRPKRESRRDYELPETQTGFSMADLFGDIEL	failed
MAKIKVMSIFGTRPEAIKMAPLVLALEKEPETFESTVVITAQHREMLDQVLEIFDIKPDIDLDIMKKGQTLAEITSRVMNGINEVIAAENPDIVLVHGDTTTSFAAGLATFYQQKMLGHVEAGLRTWNKYSPFPEEMNRQLTGVMADIHFSPTKQAKENLLAEGKDPATIFVTGNTAIDALKTTVQKDYHHPILENLGDNRLILMTAHRRENLGEPMQGMFEAVREIVESREDTELVYPMHLNPAVREKAMAILGGHERIHLIEPLDAIDFHNFLRKSYLVFTDSGGVQEEAPGMGVPVLVLRDTTERPEGIEAGTLKLIGTNKENLIKEALDLLDNKESHDKMAQAANPYGDGFAANRILAAIKSHFEETDRPEDFIV	not failed
MTDKKTTEKKETETAATFTEELTAVLEEIKEEPVKEKKKGEIVTIVNETDIQIGEREYRIVKNHRDAFDPERLGERFSEVLARYDYIVGDWGYEQLRLRGFFDTSNRRAAPDQRIDTLEDYLYEYCNFGCAYFVIERTGERKEKTTHRRRRHKKNNRSNAFVEEKSAPANKNSKPVIRTRKEENKKTTTPKQPSPKKSGKGFTIRQREELEHHHHHH	not failed
MGTAMRSVAWGLAIALWPIAVWAENPEDLQRLLTTRQCERCDLQDSGLVLARLSGARLTGSNLQRANLSGADLSGADLRQTDLRGASLQRANLAGANLTGARLDGVDLREAWLTEAILTPQQLALAHIQGAQGLDVTALPFERYQAWGIEAIQAGRFERAISYFDLALQRNPKSASTYLSRAIAYQGLGRSEQAIADAQAAEQLYKSQQNPEGEKRSQELRTTIVAAQERVASSGSNGGNGGGSAALAVLTGIVQGVLPFLLGFPF	failed
MMGNDSYSSNRGSSRDVLSFLQNFLGGFYAKYGIEVKLVGGLSLSKFYYAFDAERNQFLARHFLPVLSYIKKDFNARAALGIVNVDIYEPGFNFIFGLAHPGLKVAVVSLYRLYPEFYGNPPDRKLLKERALKEVMHELGHVFGLGHCPNPKCVMHFSNSIIDTDIKSWMYCESCLRKLEKNLARSHVLEHHHHHH	failed
SATHGQTCARPMCIPPSYADLGKAARDIFNKGFGFGLVKLDVKTKSCSGVEFSTSGSSNTDTGKVTGTLETKYKWCEYGLTFTEKWNTDNTLGTEIAIEDQICQGLKLTFDTTFSPNTGKKSGKIKSSYKRECINLGCDVDFDFAGPAIHGSAVFGYEGWLAGYQMTFDSAKSKLTRNNFAVGYRTGDFQLHTNVNDGTEFGGSIYQKVCEDLDTSVNLAWTSGTNCTRFGIAAKYQLDPTASISAKVNNSSLIGVGYTQTLRPGVKLTLSALVDGKSINAGGHKVGLALELEA	not failed
MIKIVTDNFLYEKEKVLALRYMYDSAKKPGITIITVTNKQKYIKNIMDNFRRCLYPKKEFIIILNDTKLQTSLYKNYFSKTKNLKLFKVDSSYSLGECLNLAISKSNYNYIAKMDDDDYYGSHYILDSMNAFNYTDASIIGKATHFIYFEDRTLLNLWCQGNENTYATSVAGATFVMKKSIFNKVKFNSLNNGEDIDLLSQCNNLGIKIYSCSKFNYVYNRHASPDNHSWKISNDLLVKRSIKLCITKSYKRIVHILEHHHHHH	failed
MRNETGGTMVVDLQTDPYNNIHSRHNLSYDLSEGPKPRPKFGNISKTDHDEIFPPDDPIIINSNVTHQRFSSVSASTMSSGPASGEGSPCVMSPWARVSPPWGADFNEDNVLETNGLIGSIVRKEGHIYSLAASGDLLYTGSDSKNIRVWKNLKEHAGFKSSSGLIKAIVIFGDRIFTGHQDGKIRIWKVSKRKPGKHKRVGTLPTFKSMVKSSVNPKHFMEVRRNRNSVKTKHNDAVSSLSLDVELGLLYSSSWDTTIKVWRIADSKCLESIHAHDDAINSVMSGFDDLVFTGSADGTVKVWKRELQGKGTKHTLAQVLLKQENAVTALAVKSQSSIVYCGSSDGLVNYWERSKRSFTGGILKGHKSAVLCLGIAGNLLLSGSADKNICVWRRDPSDKSHQCLSVLTGHMGPVKCLAVEEERACHQGAKASVAEGDRKWIIYSGSLDKSVKVWRVSERMATWKEMDEPAASSERKSSSSPHEGSGAWSSRNVEK	failed
MDPLALALLPGIGPKRLLEVLKAEDPLGFLRERFPEAWRHLPEAEAQAERERGRAEALGVRLLGLWEEGFPEGLRALPQPPTHLYLKGELPPEREAVALVGTRRASPWALAFARRLARELAEAGLWVVSGLARGIDREAHLGALEAGGRTLGVLGSALDRVYPPENRPLAQRMDLLSEFPFGTGPKPEFFPRRNRLIAGLCRAVVVVEAPLDSGALITARHALELGKEVLAVPGRPTDERSLGANRLIQDGAYPVLSAEDVLSYLGMSARPKPLPGLSPEEEALYALLQEKKEALPEALAMALGIPPERVLSLLTLLELKGLARALPGGRYGPG	failed
MKANLERVPIRIGSSWRYKKIDGVEKNCHWHFHNEYELVLFRKNNAKGMVGHFERVIEKNTLWLIPPKMPHAIELLEEKELQCESHIIWLPKEWVENMIFSCTELRRMGELFKRSSNGLCFSTSTAEKVYQLIEKLFKDSILDDLGYLIQILGCLCSDKETRPLQLFSKQEASDKEGKEK	failed
MWEAIKDRETGRIRSNSFANRFKSRRILSLQLSNRKDFVSPHRGSVNSLQVDLTEGRYLLSGAADGSAAVFDVQRATDYEASGLIAKHKCIFTVDKQHENGHKYAISSAIWYPIDTGLFITGSFDHYLKVWDTNTAQAVVDFKMPGKVYRTAMSSMAMSHTLIAAGTEDVQVRLCDIASGAFSHTLSGHRDGVMSVEWSTSSEWVLYTGGCDGAIRFWDIRRAGCFRVLDQSQTQLGFRPPILKRTAVGSKLSSVAKSSLGGQNRLKTLQSKQTGSQSVKGSSSAKASVEKSRQKRIHPGMLSTLDRATAHYGAVTGLKATNDGMYLLSAGSDSRIRLWDIESGRNTLVNFETGRIQTNKGIQLDTSDDPALVFVPCMKTVKVAFGMWSGRTTLMLRGHYESVNTCCFNSNDQELYTSGSDRQILVWSPGGTVEDEMVQDEVAEDKDNWSD	failed
LFTESAKAVLAIAQEEAKYFRHQSVGSEHLLLALVLEPNGIAGKTLRQLNTDTEDIREEIEHLSGYGTMQSPMGNNNLYLPYSPRAKQIFAYAGDEAKRLGAQKIGTEHLLLGLLRDEEILASRILVNLGLSLSKMRQLLLKKMG	failed
MRFCIMKKAVVLLSGGLDSTTCLALAKSQGFACYALSFSYGQRHSAELCAATRIAKHMGAADHKIVTLDIALFGGSALTDASIEVPEFKESPEIPVTYVPARNTIFLAMALGYAESIGARDIFIGASSVDYSHYPDCRPEFIESFQSLANLATKAGIEGDRFTINAPLQYLSKVQTIQLGTELGVDYGLTVSCYQANEAGEACGQCDSCTFRKRGFKSAGVDDPTRYQKCVHI	failed
MMWEQFKKEKLRGYLEAKNQRKVDFDIVELLDLINSFDDFVTLSSCSGRIAVVDLEKPGDKASSLFLGKWHEGVEVSEVAEAALRSRKVAWLIQYPPIIHVACRNIGAAKLLMNAANTAGFRRSGVISLSNYVVEIASLERIELPVAEKGLMLVDDAYLSYVVRWANEKLLKGKEKLGRLQEALESLQRENAYCSD	not failed
